Reference: patent publication US20140024038A1, “METHOD AND REAGENTS FOR TREATING HEPATIC FIBROSIS AND INFLAMMATION” (Agency for Science, Technology and Research, priority 2006, published 2014)

Columns and labels:
Assay type in all cases: cell-based, rat
[1] = system: HSC-T6, activated HSCs and CFSC-3H; assay: Cathepsin S activity measurement in HSCs after IFN-γ induction (BioVision kit, fluorogenic substrate); conditions: IFN-γ 10 ng/ml, 48 h, P<0.05 vs untreated, FIG. 9
Protocol: The cells were grown in cell culture medium containing 10% FBS in 75 cm^2 flasks. When the cells reached 50-60% confluence, IFN-γ was added at 10 ng/ml or omitted as untreated sample. The cells were harvested 48 h later and resuspended in CS cell lysis buffer. Cathepsin S activity was measured using a kit from BioVision (K1101-01) according to the provided manual. The final substrate concentration was 200 μM. Emitted fluorescence was measured using the Tecan Satire II (Tecan, Zurich, Switzerland) fluorescence plate reader at λex: 400 nm and λem: 505 nm. An AFC standard curve was used to calculate the released fluorophore in μM per μg protein per hour at 37° C.
To further investigate the induction of cathepsin S by IFN-γ, activity measurement was performed to directly detect cathepsin S in activated HSCs and both cell lines. FIG. 9 depicts the cathepsin S activity in activated HSCs and two different cell lines. The cells were grown in cell culture medium containing 10% FBS. When they reached 50-60% confluence, IFN-γ was added or omitted as control. The cells were harvested 48 h later and resuspended in CS cell lysis buffer. Cathepsin S activity was measured using a final substrate concentration of 200 μM. The specific activity is given in released fluorophore (AFC) in μM per μg protein per hour at 37° C. Data are presented as mean±SD*P<0.05.

[2] = system: HSC-T6 and activated HSCs; assay: Immunofluorescence staining of CD74, RT1-B and cathepsin S proteins after IFN-γ treatment
Protocol: The primary cells were grown in DMEM supplemented with 10% FBS on glass cover slips in 24-well culture plates prior to staining with antibodies against GFAP, SMAA, Desmin, RECA-1, ED-2, cathepsin S, RT1-B and CD74. At 60-70% confluence, the cells were washed once with sterile PBS and fixed with 4% paraformaldehyde (PFA) for 30 min at 4° C., followed by three washes with PBS. The cells were blocked and permeabilized in blocking solution (10% horse serum, 0.1% Triton X-100 in PBS) for 1 h at 37° C. The primary antibody was incubated in 10% blocking solution in PBS for 1 h at 37° C. followed by the secondary antibody under the same conditions. The primary antibody was omitted as a negative control. All images were taken with the LEICA DM IRB epifluorescence microscope using a 63× objective.
For induction experiments, IFN-γ was added to the cell culture at low confluence and the cells were cultivated further for different times depending on the targets to be stained (Cat S: 0, 4, 8, 24, 30 h; CD74: 0, 8, 24, 30 h; and RT1-B: 0, 24, 48 h). The presented images are representative for 3 experiments. Images were taken with a 40× objective. The fluorescence intensities from 3 to 7 different fields of vision of one representative experiment were quantified using the Image processing toolbox of the MATLAB platform (MathWorks, MA, USA). The following antibodies were used in the immunofluorescent staining. Anti-Cat S antibody (sc-6505) and anti-CD74 antibody (sc-5438) were from Santa Cruz Biotechnology (CA, USA); anti-RT1-B antibody (554926) was from BD Pharmingen (CA, USA); anti-GFAP antibody (Z 0334) was from Dako (CA, USA); and anti-SMAA-Cy3 (C 6198) and antidesmin antibody (D 8281) were from Sigma Chemicals (MO, USA). The anti-RECA-1 antibody (MCA970) and anti-ED-2 (CD163, MCA342R) were from Serotec (Oxford, UK). […]
For these experiments, we used the HSC-T6 and the activated HSCs. […] FIG. 5A and FIG. 5C show the immunofluorescence staining with anti-CD74 antibody after 30 h of IFN-γ induction for HSC-T6 and activated HSCs respectively (arrows depict the increase in fluorescence). […]

[3] = system: HSC-T6, activated HSCs and CFSC-3H; assay: Real-time RT-PCR of Cat S, Cat L, CD74, CIITA and RT1-Dα after IFN-γ treatment
Protocol: HSC-T6, CFSC-3H and activated HSCs were plated into 75 cm^2 culture flasks and grown overnight at conditions described above. The cells at a confluence of 60-70% were incubated with 10 ng/ml final concentration (equivalent to 100 U/ml) of recombinant rat IFN-γ for 2, 4, 8 and 24 h. The recombinant rat interferon-γ (IFN-γ) was purchased from BioVision (CA, USA). Total RNA was isolated using the NucleoSpin RNAII isolation kit (Macherey & Nagel, Germany) according to the manufacturer's protocol. The RNA concentration was measured with the ND-100 spectrophotometer (NanoDrop Technologies, DE, USA).
Real-time PCR was performed using the ABI 7500 Real Time PCR System (Applied Biosystems, CA, USA). All reagents were purchased from this company unless otherwise stated. Total RNA was reverse transcribed to cDNA using reagents from the cDNA archive kit (4322171). 10 μg of total RNA was used in a total reverse transcription reaction volume of 100 μl. The RT step was performed for 10 min at 25° C. and 2 h at 37° C. In real-time PCR, 20× TaqMan gene expression assay mix of Cat S (Rn01534427_m1), Cat L (Rn00565793_m1), CD74 (Rn01491430_g1), CIITA (Rn01424723_g1) and RT1-Dα (Rn02346209g1), as well as 20×18s rRNA (4319413E) were used. For each real-time target, the reaction comprises of 3 μl cDNA, 0.5 μl 20×18S rRNA, 0.5 μl 20× TaqMan gene expression assay, 1 μl nuclease-free water and 5 μl TaqMan Universal PCR master mix (4352042). Conditions for PCR were 2 min 50° C., 10 min 95° C. and 40 cycles of 15 s 95° C. and 1 min 60° C. The comparative threshold method was used to quantitate relative changes of target mRNA (User Bulletin #2, Applied Biosystems). Relative quantitation of target mRNA was expressed as fold change in gene expression to control (untreated). The data presented are representative for three independent experiments with the same trend. The graphs were made using OrignPro 7 (OriginLab, MA, USA).
FIG. 3A-3C depicts a quantitative analysis of the change in cathepsin S, CIITA, CD74 and RT1-Dα transcript level upon treatment with IFN-γ using real-time RT-PCR. After treatment with IFN-γ for 2, 4, 8 and 24 h, total RNA was extracted from the three different HSCs (activated HSC, HSC-T6 and CFSC-3H). The RNA was reverse transcribed and real-time RT-PCR was performed using TaqMan assays. The results were expressed as fold change in gene expression compared to the untreated samples using the relative quantification method for HSC-T6 (FIG. 3A), activated HSCs (FIG. 3B) and CFSC-3H (FIG. 3C).

[4] = IFN-γ 10 ng/ml, 2-24 h, HSC-T6, activated HSCs, CFSC-3H, vs untreated

B1: IFN-γ: recombinant rat interferon-γ purchased from BioVision, proinflammatory cytokine (protein, UniProt P01581 23-156, looked up)
Interferon gamma: QGTLIESLESLKNYFNSSSMDAMEGKSLLLDIWRNWQKDGNTKILESQIISFYLRLFEVLKDNQAISNNISVIESHLITNFFSNSKAKKDAFMSIAKFEVNNPQIQHKAVNELIRVIHQLSPESSLRKRKRSRC
[1]
  cathepsin S specific activity: significant increase
[2]; IFN-γ 8 h, quantified fluorescence intensities, FIG. 8
  cathepsin S expression on the protein level: significant increase
[2]; IFN-γ 30 h
  CD74 protein expression: significantly induced
[2]; IFN-γ 48 h
  RT1-B protein expression: induced
[3]; HSCs, data not shown
  CIITA type III transcript: inducible
[3]; IFN-γ 10 ng/ml
  increase in CIITA transcript level in activated HSCs relative to HSC-T6 and CFSC-3H: > 20 times
[3]; [4]
  CIITA transcript level: started to increase at an early time point
  cathepsin S transcript level: upregulated
[3]; IFN-γ 10 ng/ml, at a later time, indirectly through CIITA
  mRNA expression of RT1-Dα and CD74: induced
[3]; IFN-γ 2, 4, 8 and 24 h, activated HSCs, HSC-T6, CFSC-3H, FIG. 4
  cathepsin L mRNA level: no influence
[3]; after 8 h IFN-γ, CFSC-3H
  cathepsin L mRNA expression in CFSC-3H: decreased
